The target in test [1] is T1, soluble Hendra virus G glycoprotein (sG) (Hendra virus, UniProt O89343 71-604).
T1 sequence: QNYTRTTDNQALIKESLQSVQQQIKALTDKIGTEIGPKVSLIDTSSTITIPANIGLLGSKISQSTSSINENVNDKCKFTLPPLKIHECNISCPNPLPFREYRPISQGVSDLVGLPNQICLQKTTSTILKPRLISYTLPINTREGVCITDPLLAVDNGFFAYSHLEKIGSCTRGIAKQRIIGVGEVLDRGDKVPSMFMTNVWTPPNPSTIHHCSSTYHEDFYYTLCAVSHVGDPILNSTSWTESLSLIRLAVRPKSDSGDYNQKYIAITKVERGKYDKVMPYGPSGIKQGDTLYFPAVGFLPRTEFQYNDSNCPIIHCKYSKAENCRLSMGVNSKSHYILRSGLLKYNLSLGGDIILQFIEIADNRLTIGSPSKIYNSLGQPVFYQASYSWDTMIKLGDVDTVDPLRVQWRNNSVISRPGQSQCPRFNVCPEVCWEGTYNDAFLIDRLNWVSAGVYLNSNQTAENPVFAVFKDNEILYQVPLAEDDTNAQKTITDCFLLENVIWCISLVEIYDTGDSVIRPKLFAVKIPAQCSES
Briefly: ELISA, purified soluble Fab on coated sG.

The target in test [2] is T1, soluble Hendra virus G glycoprotein (sG). Briefly: SPR (Biacore 1000), sG immobilised on CM5, Fab injected, 25 C, 1:1 Langmuir fit. Background: In SPR one partner is held on a chip, and binding of the other changes the refractive index at the surface.
For test [3] the target is unchanged.
The target is the same in test [4]. Briefly: SPR (Biacore); upper end of the range told of the group, tied to m103 by Table 5.
Test [5] deals with T2, HeV G envelope glycoprotein (on effector cells expressing HeV F and G, or on infectious HeV) (Hendra virus, UniProt O89343 1-604).
T2 sequence: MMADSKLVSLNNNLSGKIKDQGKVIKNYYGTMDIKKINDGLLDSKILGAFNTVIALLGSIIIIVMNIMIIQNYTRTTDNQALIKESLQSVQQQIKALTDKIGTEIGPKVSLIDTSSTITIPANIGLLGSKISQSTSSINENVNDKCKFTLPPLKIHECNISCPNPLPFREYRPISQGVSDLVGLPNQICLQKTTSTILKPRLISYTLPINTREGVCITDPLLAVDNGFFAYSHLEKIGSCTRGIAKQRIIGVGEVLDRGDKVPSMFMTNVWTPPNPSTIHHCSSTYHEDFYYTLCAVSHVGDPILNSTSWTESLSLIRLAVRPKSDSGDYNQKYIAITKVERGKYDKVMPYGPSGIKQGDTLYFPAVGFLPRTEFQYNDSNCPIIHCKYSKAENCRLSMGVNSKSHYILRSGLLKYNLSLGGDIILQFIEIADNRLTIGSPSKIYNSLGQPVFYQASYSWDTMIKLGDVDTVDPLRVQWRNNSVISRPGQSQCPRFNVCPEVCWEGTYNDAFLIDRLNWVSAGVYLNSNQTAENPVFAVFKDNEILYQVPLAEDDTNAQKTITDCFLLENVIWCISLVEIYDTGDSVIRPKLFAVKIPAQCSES
Briefly: cell-based or functional assay.

Read-outs that look alike come from different tables or passages of the source.

The source of these data is US20090214428A1 (HENRY M JACKSON FOUNDATION FOR THE ADVANCEMENT OF MILITARY …, published 2009).

B1: Fab m117 (Fab, V domains shown)
VH: QITLKESGPTLVKPTQTLTLTCTFSGFSLSTSGVGVGWIRQPPGKALEWLALIYWDDDKRYSPSLKSRLTITKDTSKNQVVLTMTNMDPVDTATYYCAHRESGPEFFQHWGQGTLVTVSS
VL: DVVMTQSPLSLPVTLGQPASISCNSSQSLVYSNGITYLNWFHQRPGQSPRRLIYQVSNWDSEVPDRFSGSGSATDFTLKISRVEADDVGIYYCMQGTHWPPTFGQGTRLEIKR
In test [1], B1 showed an A450 of 0 A450.

B2: Fab m110 (Fab, V domains shown)
VH: EVQLVQSGGGLVQPGRSLRLSCAASGFTFDDYAMHWVRQAPGKGLEWVSAISGSGGSTYYADSVKGRFTISRDNSKNTLYLQMNSLRAEDTAVYYCASEGLPETDDAFDIWGQGTMVTVSS
VL: DVVMTQSPLSLPVTPGEPASISCRSSQSLLYSDGYNYLDWYLQKPGQSPQLLIYLGSRRASGVPDRFSGSGSGTDFTLKINTVEAEDVGVYYCMQGVEIPFTFGPGTKVEIKR
B2: in test [1], the A450 worked out at 0 A450.

B3: Fab m116 (Fab, V domains shown)
VH: EVQLVQSGAEVKKPGSSVKVSCKASGGAFSSYAISWVRQAPGQGLEWMGGIIPIFGTANYAQKFQGRVTITADESTSTAYMELSSLRSEDTAVYYCARDSAGLGAWGQGTLVAVSS
VL: DIQMTQSPSSLSASVGDRVTITCRASQGISSALAWYQQKPGKAPKLLIYDASSLESGVPSRFSGSGSGTDFTLTISSLQPEDFATYYCQQFNSYPLTFGQGTRLEIKR
In test [1], B3 came in with an A450 of 0.3 A450.

B4: Fab m104 (Fab, V domains shown)
VH: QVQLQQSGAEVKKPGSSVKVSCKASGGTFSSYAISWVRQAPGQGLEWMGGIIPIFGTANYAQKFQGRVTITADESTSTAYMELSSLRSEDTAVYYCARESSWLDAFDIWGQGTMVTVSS
VL: DVVMTQSPLSLSVTAGEPASISCRSSQSLLHSNGHIYLDWYLQKPGQSPQLLIYMASNRASGVPDRFSGSGSGTDFTLRINRVETEDVGIYYCMQSLHTTRTFGQGTKVEIKR
What is called Kd is a measure of binding affinity in units of concentration. Higher therefore signals a looser complex. In general, koff refers to the rate constant with which the complex falls apart. High values mean a short-lived complex, low ones a long-lived complex. What is called kon is the rate constant with which the complex forms. Low readings indicate slower complex formation, high ones faster complex formation. As for B4, in test [1], the A450 turned out to be 0.7 A450. In test [2], the Kd amounted to 600 nM, the koff stood at 0.0016 s⁻¹ and the on-rate constant (kon) worked out at 3000 M⁻¹ s⁻¹.

B5: Fab m111 (Fab, V domains shown)
VH: QVQLVQSGAEVKKPGATVKISCKVSGYTFTDYYMHWVQQAPGKGLEWMGLVDPEDGETIYAEKFQGRVTITADTSTDTAYMELSSLRSEDTAVYYCATEGADYWGQGTLVTVSS
VL: DVVMTQSPLSLPVALGQPASISCRSSQSLVHSDGNTYLNWFQQRPGQSPRRLLYKVSNRESGVPDRFSGSGSGSDFTLKISRVEAEDVGIYYCMQGTHWPPITFGQGTRLEIKR
B5: in test [1], the A450 worked out at 0 A450.

B6: Fab m112 (Fab, V domains shown)
VH: QVQLVQSGAEVKKPGATVKISCKVSGYTFTDYYMHWVQQAPGKGLEWMGLVDPEDGETIYAQKFQGRVTITADTSTNTAYMELSSLRSEDTAVYYCATDGADYWDQGTLGTVST
VL: QSVLTQPPSVSGAPGQTVTISCTGSSSNIGGDSDVHWYQQLPGSAPKLLIYGNRNRPSGVPDRFSGSRSGTSASLAVIGVQADDEADYYCQCYDSSLNGYVFGPGTKVIVL
With B6, in test [1], the A450 amounted to 0.4 A450.

B7: Fab m108 (Fab, V domains shown)
VH: EVQLVESGGGLVKPGGSLRLSCAASGFTFSDYYMSWIRQAPGKGLEWVSYISSSGSTIYYADSVKGRFTISRDNAKNSLYLQMNSLRAEDTAVYYCARVGGAFDIWGQGTMVTVSS
VL: NFMLTQPHSVSGSPGKTVTISCTRSSGSIASNYVQWYRQSPGSAPTTVIYEGYQRPSGVPDRFSGSIDSSSNSASLTISGLETEDEADYYCQSYDATNHQVVFGGGTKLTVL
Consider B7, for which the A450 in test [1] stood at 0.5 A450.

B8: Fab m103 (Fab, V domains shown)
VH: EVQLVESGGGLIQPGGSLRLSCAASGFTVSSNYMSWVRQAPGKGLEWVSVIYSGGSTYYADSVKGRFTISRDNSKNTLYLQMNSLRAEDTAVYYCARDSRYHDAFDIWGQGTMVTVSS
VL: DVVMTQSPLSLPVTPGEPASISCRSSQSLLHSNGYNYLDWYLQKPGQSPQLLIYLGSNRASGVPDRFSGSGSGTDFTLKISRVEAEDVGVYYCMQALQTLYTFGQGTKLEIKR
On to B8, for which the Kd in test [3] was 1800 nM; in test [4], 1000 nM. The A450 in test [1] was 0.8 A450.

B9: Fab m115 (Fab, V domains shown)
VH: QVQLQQSGAEVKKPGSSVKVSCKASGGTFRSYAISWVRQAPGQGLEWMGGIIPIFGTANYAQKFQGRVTITADESTSTAYMELSSLRSEDTAVYYCARGSQSYDHYYYYGMDVWGQGTTVTVSS
VL: QSALTQPASVSGSPGQSITISCTGTSSDVGGYNYVSWYQQHPGKAPKLMIFDVSNRPSGVSNRLSGSKSGNTASLTISGLQAEDEADYYCSSYTSNTVVFGGGTKLTVL
In the case of B9, the A450 in test [1] was determined as 0.4 A450.

B10: Fab m109 (Fab, V domains shown)
VH: QMQLQQWGAGLLKPSETLSLTCAVYGGSFSGYYWSWIRQPPGKGLEWIGEINHSGSTNYNPSLKSRVTISVDTSKNQFSLKLSSVTAADTAVYYCARGWFRDWYFDLWGRGTLVTVSS
VL: DIQMTQSPSSLSASVGDRVTITCRASQDIRNDLGWYQQRPGKAPKLLIYAASSLQSGVPSRFSGSGSGTDFTLTISSLQPEDSATYFCLQDYQYPWTFGQGTKVEIKR
With B10, the A450 in test [1] worked out at 0 A450.

B11: Fab m106 (Fab, V domains shown)
VH: QVQLQQSGAEVKKPGSSVKVSCKASGGTFSSYAISWVRQAPGQGLEWMGGIIPIFGTANYAQKFQGRVTITADKSTSTAYMELSSLRSEDTAVYYCARDQLAGYYYDSSGYHYYYYGMDVWGQGTTVTVSS
VL: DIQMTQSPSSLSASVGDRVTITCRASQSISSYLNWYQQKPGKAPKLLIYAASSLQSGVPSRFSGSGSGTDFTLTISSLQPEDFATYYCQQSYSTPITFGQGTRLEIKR
B11 came in with an A450 in test [1] of 1.6 A450. In test [2], this molecule had a Kd of 54 nM, a koff of 0.0033 s⁻¹ and a kon of 62000 M⁻¹ s⁻¹.

B12: Fab m113 (Fab, V domains shown)
VH: QVQLQQSGAEVKKPGSSVKVSCKASGGTFSSYAISWVRQAPGQGLEWMGWTNPNSGGTNYAQKLQGRVTMTTDTSTSTAYMELRSLRSDDTAVYYCANYKLQSDAFDIWGQGTMVTVSS
VL: DIQMTQSPSSLSASVGDRVTITCRASQDIGNFLVWFQQKPGKAPKSLIYAASRLQSGVPSRFSGSGSGTDFTLTISSLQPEDFATYYCQHYKSYPLTFGGGTKVEIKR
On to B12, for which the A450 in test [1] came out at 0.1 A450.

B13: Fab m105 (Fab, V domains shown)
VH: QVQLVQSGGGVVQPGRSLRLSCAASGFTFSSYAMHWVRQAPGKGLEWVAVISYDGSNKYYADSVKGRFTISRDNSKNTLYLQMNSLRAEDTAVYYCARVGGITGTADAFDIWGQGTMVTVSS
VL: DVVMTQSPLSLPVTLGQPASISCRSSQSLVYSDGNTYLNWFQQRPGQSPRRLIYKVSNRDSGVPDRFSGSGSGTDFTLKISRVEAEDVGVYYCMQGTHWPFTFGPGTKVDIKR
As for B13, the A450 in test [1] is 0.9 A450. In test [2], binding was put at a Kd of 69 nM, the koff turned out to be 0.0051 s⁻¹ and the kon is 74000 M⁻¹ s⁻¹.

B14: Fab m101 (Fab, V domains shown)
VH: QVQLVQSGAEVKKPGASVKVSCKASGGTFSSYAISWVRQAPGQGLEWMGGIIPIFGTANYAQKFQGRVTITADESTSTAYMELSSLRSGDTAVYYCARDPGGYSYGPYYYYYGMDVWGQGTTVTVSS
VL: DIQMTQSPSSVSASVGDRVTITCRASQGIGPWLAWYQQKPGKAPKFLIYRASTLQSGVPSRFSGSGSGTDFTLTISSLQPEDFATYYCQQAHSFPFTFGPGTKVDIKR
As for B14, in test [5], the “IC50 of HeV Env-mediated cell fusion, reporter gene assay, PCI-13 target cells” value worked out at 38 µg/mL. In test [1], this molecule displayed an A450 of 1 A450. Besides, in test [2], the dissociation constant Kd came to 28 nM, the off-rate (koff) turned out to be 0.0035 s⁻¹ and the kon was found to be 130000 M⁻¹ s⁻¹.

B15: IgG1 m101 (antibody, V domains shown)
VH: QVQLVQSGAEVKKPGASVKVSCKASGGTFSSYAISWVRQAPGQGLEWMGGIIPIFGTANYAQKFQGRVTITADESTSTAYMELSSLRSGDTAVYYCARDPGGYSYGPYYYYYGMDVWGQGTTVTVSS
VL: DIQMTQSPSSVSASVGDRVTITCRASQGIGPWLAWYQQKPGKAPKFLIYRASTLQSGVPSRFSGSGSGTDFTLTISSLQPEDFATYYCQQAHSFPFTFGPGTKVDIKR
Consider B15, for which, in test [5], the “IC50 of HeV Env-mediated cell fusion, reporter gene assay, PCI-13 target cells” value is 1.2 µg/mL.

B16: Fab m107 (Fab, V domains shown)
VH: EVQLVQSGAEVKKPGASVKVSCKASGYTFTGYYMHWVRQAPGQGLEWMGIINPSGGSTSYAQKFQGRVTMTRDTSTSTVYMELSSLRSEDTAVYYCARDHVHGPDAFDIWGQGTMVTVSS
VL: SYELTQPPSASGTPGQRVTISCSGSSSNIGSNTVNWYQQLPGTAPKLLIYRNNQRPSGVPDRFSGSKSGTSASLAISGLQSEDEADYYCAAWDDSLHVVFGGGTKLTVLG
B16 displayed an A450 in test [1] of 0.6 A450. Besides, in test [2], the dissociation constant (Kd) is 78 nM, the koff came to 0.0022 s⁻¹ and the kon is around 30000 M⁻¹ s⁻¹.
